# Data as given in patent US20190338009A1 (ZEALAND PHARMA A S, published 2019).
# Square brackets hold non-standard residues; d marks the D form. Aib = CC(C)(N)C(=O)O
# T1: human GLP-2 receptor (hGLP2-R) (human, UniProt O95838 1-553)
# T1 sequence (looked up): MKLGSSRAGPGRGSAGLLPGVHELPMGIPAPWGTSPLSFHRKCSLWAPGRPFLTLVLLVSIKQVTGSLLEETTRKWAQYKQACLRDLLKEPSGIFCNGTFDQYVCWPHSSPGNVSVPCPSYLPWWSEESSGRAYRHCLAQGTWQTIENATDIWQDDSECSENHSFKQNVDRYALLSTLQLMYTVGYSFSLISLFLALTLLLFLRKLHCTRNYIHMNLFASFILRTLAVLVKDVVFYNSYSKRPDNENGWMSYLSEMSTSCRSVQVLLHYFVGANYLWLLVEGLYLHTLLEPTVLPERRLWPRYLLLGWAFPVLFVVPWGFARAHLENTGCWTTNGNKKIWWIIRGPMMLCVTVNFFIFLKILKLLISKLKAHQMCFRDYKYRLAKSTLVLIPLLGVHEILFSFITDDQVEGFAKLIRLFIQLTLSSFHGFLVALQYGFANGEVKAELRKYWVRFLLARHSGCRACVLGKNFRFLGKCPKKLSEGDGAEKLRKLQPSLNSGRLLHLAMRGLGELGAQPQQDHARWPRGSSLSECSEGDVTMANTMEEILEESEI
# Legend:
# [1] = molecular target: T1, human GLP-2 receptor (hGLP2-R); test: cell-based or functional assay
# [2] = molecular target: human glucagon-like peptide 1 receptor (GLP-1R) (human, UniProt P43220 24-463); test: cell-based or functional assay
binder,measurement,setting,value
H-H[Aib]EGSFTSELATILDEQAARDFIAWLIAQKITD-OH (SMILES CC[C@H](C)[C@H](NC(=O)[C@H](CC(C)C)NC(=O)[C@H](Cc1c[nH]c2ccccc12)NC(=O)[C@H](C)NC(=O)[C@@H](NC(=O)[C@H](Cc1ccccc1)NC(=O)[C@H](CC(=O)O)NC(=O)[C@H](CCCNC(=N)N)NC(=O)[C@H](C)NC(=O)[C@H](C)NC(=O)[C@H](CCC(N)=O)NC(=O)[C@H](CCC(=O)O)NC(=O)[C@H](CC(=O)O)NC(=O)[C@H](CC(C)C)NC(=O)[C@@H](NC(=O)[C@@H](NC(=O)[C@H](C)NC(=O)[C@H](CC(C)C)NC(=O)[C@H](CCC(=O)O)NC(=O)[C@H](CO)NC(=O)[C@@H](NC(=O)[C@H](Cc1ccccc1)NC(=O)[C@H](CO)NC(=O)CNC(=O)[C@H](CCC(=O)O)NC(=O)C(C)(C)NC(=O)[C@@H](N)Cc1c[nH]cn1)[C@@H](C)O)[C@@H](C)O)[C@@H](C)CC)[C@@H](C)CC)C(=O)N[C@@H](C)C(=O)N[C@@H](CCC(N)=O)C(=O)N[C@@H](CCCCN)C(=O)N[C@H](C(=O)N[C@H](C(=O)N[C@@H](CC(=O)O)C(=O)O)[C@@H](C)O)[C@@H](C)CC) [Compound 25],"EC50 GLP-2 (nM); cAMP AlphaScreen, HEK293 cells expressing human GLP-2R",[1],0.062 nM
same,"EC50 GLP-1 (nM); cAMP AlphaScreen, HEK293 cells expressing human GLP-1R",[2],0.008 nM
H-H[Aib]EGTFTDELATILDEQAARDFIAWLQAQKITD-OH (SMILES CC[C@H](C)[C@H](NC(=O)[C@H](Cc1ccccc1)NC(=O)[C@H](CC(=O)O)NC(=O)[C@H](CCCNC(=N)N)NC(=O)[C@H](C)NC(=O)[C@H](C)NC(=O)[C@H](CCC(N)=O)NC(=O)[C@H](CCC(=O)O)NC(=O)[C@H](CC(=O)O)NC(=O)[C@H](CC(C)C)NC(=O)[C@@H](NC(=O)[C@@H](NC(=O)[C@H](C)NC(=O)[C@H](CC(C)C)NC(=O)[C@H](CCC(=O)O)NC(=O)[C@H](CC(=O)O)NC(=O)[C@@H](NC(=O)[C@H](Cc1ccccc1)NC(=O)[C@@H](NC(=O)CNC(=O)[C@H](CCC(=O)O)NC(=O)C(C)(C)NC(=O)[C@@H](N)Cc1c[nH]cn1)[C@@H](C)O)[C@@H](C)O)[C@@H](C)O)[C@@H](C)CC)C(=O)N[C@@H](C)C(=O)N[C@@H](Cc1c[nH]c2ccccc12)C(=O)N[C@@H](CC(C)C)C(=O)N[C@@H](CCC(N)=O)C(=O)N[C@@H](C)C(=O)N[C@@H](CCC(N)=O)C(=O)N[C@@H](CCCCN)C(=O)N[C@H](C(=O)N[C@H](C(=O)N[C@@H](CC(=O)O)C(=O)O)[C@@H](C)O)[C@@H](C)CC) [Compound 29],"EC50 GLP-2 (nM); cAMP AlphaScreen, HEK293 cells expressing human GLP-2R",[1],0.11 nM
same,"EC50 GLP-1 (nM); cAMP AlphaScreen, HEK293 cells expressing human GLP-1R",[2],0.044 nM
H-H[Aib]EGTFTSELSTILDEQAARDFIAWLHAQKITD-OH (SMILES CC[C@H](C)[C@H](NC(=O)[C@H](Cc1ccccc1)NC(=O)[C@H](CC(=O)O)NC(=O)[C@H](CCCNC(=N)N)NC(=O)[C@H](C)NC(=O)[C@H](C)NC(=O)[C@H](CCC(N)=O)NC(=O)[C@H](CCC(=O)O)NC(=O)[C@H](CC(=O)O)NC(=O)[C@H](CC(C)C)NC(=O)[C@@H](NC(=O)[C@@H](NC(=O)[C@H](CO)NC(=O)[C@H](CC(C)C)NC(=O)[C@H](CCC(=O)O)NC(=O)[C@H](CO)NC(=O)[C@@H](NC(=O)[C@H](Cc1ccccc1)NC(=O)[C@@H](NC(=O)CNC(=O)[C@H](CCC(=O)O)NC(=O)C(C)(C)NC(=O)[C@@H](N)Cc1c[nH]cn1)[C@@H](C)O)[C@@H](C)O)[C@@H](C)O)[C@@H](C)CC)C(=O)N[C@@H](C)C(=O)N[C@@H](Cc1c[nH]c2ccccc12)C(=O)N[C@@H](CC(C)C)C(=O)N[C@@H](Cc1c[nH]cn1)C(=O)N[C@@H](C)C(=O)N[C@@H](CCC(N)=O)C(=O)N[C@@H](CCCCN)C(=O)N[C@H](C(=O)N[C@H](C(=O)N[C@@H](CC(=O)O)C(=O)O)[C@@H](C)O)[C@@H](C)CC) [Compound 27],"EC50 GLP-2 (nM); cAMP AlphaScreen, HEK293 cells expressing human GLP-2R",[1],0.37 nM
same,"EC50 GLP-1 (nM); cAMP AlphaScreen, HEK293 cells expressing human GLP-1R",[2],0.12 nM
H-H[Aib]EGSFTSELATILDEQAARDFIAWLYAHKITD-OH (SMILES CC[C@H](C)[C@H](NC(=O)[C@H](Cc1ccccc1)NC(=O)[C@H](CC(=O)O)NC(=O)[C@H](CCCNC(=N)N)NC(=O)[C@H](C)NC(=O)[C@H](C)NC(=O)[C@H](CCC(N)=O)NC(=O)[C@H](CCC(=O)O)NC(=O)[C@H](CC(=O)O)NC(=O)[C@H](CC(C)C)NC(=O)[C@@H](NC(=O)[C@@H](NC(=O)[C@H](C)NC(=O)[C@H](CC(C)C)NC(=O)[C@H](CCC(=O)O)NC(=O)[C@H](CO)NC(=O)[C@@H](NC(=O)[C@H](Cc1ccccc1)NC(=O)[C@H](CO)NC(=O)CNC(=O)[C@H](CCC(=O)O)NC(=O)C(C)(C)NC(=O)[C@@H](N)Cc1c[nH]cn1)[C@@H](C)O)[C@@H](C)O)[C@@H](C)CC)C(=O)N[C@@H](C)C(=O)N[C@@H](Cc1c[nH]c2ccccc12)C(=O)N[C@@H](CC(C)C)C(=O)N[C@@H](Cc1ccc(O)cc1)C(=O)N[C@@H](C)C(=O)N[C@@H](Cc1c[nH]cn1)C(=O)N[C@@H](CCCCN)C(=O)N[C@H](C(=O)N[C@H](C(=O)N[C@@H](CC(=O)O)C(=O)O)[C@@H](C)O)[C@@H](C)CC) [Compound 28],"EC50 GLP-2 (nM); cAMP AlphaScreen, HEK293 cells expressing human GLP-2R",[1],0.024 nM
same,"EC50 GLP-1 (nM); cAMP AlphaScreen, HEK293 cells expressing human GLP-1R",[2],0.11 nM
H-H[Aib]EGSFTSELATILDEQAARDFIAWLQAHKITD-OH (SMILES CC[C@H](C)[C@H](NC(=O)[C@H](Cc1ccccc1)NC(=O)[C@H](CC(=O)O)NC(=O)[C@H](CCCNC(=N)N)NC(=O)[C@H](C)NC(=O)[C@H](C)NC(=O)[C@H](CCC(N)=O)NC(=O)[C@H](CCC(=O)O)NC(=O)[C@H](CC(=O)O)NC(=O)[C@H](CC(C)C)NC(=O)[C@@H](NC(=O)[C@@H](NC(=O)[C@H](C)NC(=O)[C@H](CC(C)C)NC(=O)[C@H](CCC(=O)O)NC(=O)[C@H](CO)NC(=O)[C@@H](NC(=O)[C@H](Cc1ccccc1)NC(=O)[C@H](CO)NC(=O)CNC(=O)[C@H](CCC(=O)O)NC(=O)C(C)(C)NC(=O)[C@@H](N)Cc1c[nH]cn1)[C@@H](C)O)[C@@H](C)O)[C@@H](C)CC)C(=O)N[C@@H](C)C(=O)N[C@@H](Cc1c[nH]c2ccccc12)C(=O)N[C@@H](CC(C)C)C(=O)N[C@@H](CCC(N)=O)C(=O)N[C@@H](C)C(=O)N[C@@H](Cc1c[nH]cn1)C(=O)N[C@@H](CCCCN)C(=O)N[C@H](C(=O)N[C@H](C(=O)N[C@@H](CC(=O)O)C(=O)O)[C@@H](C)O)[C@@H](C)CC) [Compound 24],"EC50 GLP-2 (nM); cAMP AlphaScreen, HEK293 cells expressing human GLP-2R",[1],0.049 nM
same,"EC50 GLP-1 (nM); cAMP AlphaScreen, HEK293 cells expressing human GLP-1R",[2],0.042 nM
H-H[Aib]EGTFTSELATILDEQAARDFIAWLQAQKITD-OH (SMILES CC[C@H](C)[C@H](NC(=O)[C@H](Cc1ccccc1)NC(=O)[C@H](CC(=O)O)NC(=O)[C@H](CCCNC(=N)N)NC(=O)[C@H](C)NC(=O)[C@H](C)NC(=O)[C@H](CCC(N)=O)NC(=O)[C@H](CCC(=O)O)NC(=O)[C@H](CC(=O)O)NC(=O)[C@H](CC(C)C)NC(=O)[C@@H](NC(=O)[C@@H](NC(=O)[C@H](C)NC(=O)[C@H](CC(C)C)NC(=O)[C@H](CCC(=O)O)NC(=O)[C@H](CO)NC(=O)[C@@H](NC(=O)[C@H](Cc1ccccc1)NC(=O)[C@@H](NC(=O)CNC(=O)[C@H](CCC(=O)O)NC(=O)C(C)(C)NC(=O)[C@@H](N)Cc1c[nH]cn1)[C@@H](C)O)[C@@H](C)O)[C@@H](C)O)[C@@H](C)CC)C(=O)N[C@@H](C)C(=O)N[C@@H](Cc1c[nH]c2ccccc12)C(=O)N[C@@H](CC(C)C)C(=O)N[C@@H](CCC(N)=O)C(=O)N[C@@H](C)C(=O)N[C@@H](CCC(N)=O)C(=O)N[C@@H](CCCCN)C(=O)N[C@H](C(=O)N[C@H](C(=O)N[C@@H](CC(=O)O)C(=O)O)[C@@H](C)O)[C@@H](C)CC) [Compound 26],"EC50 GLP-2 (nM); cAMP AlphaScreen, HEK293 cells expressing human GLP-2R",[1],0.19 nM
same,"EC50 GLP-1 (nM); cAMP AlphaScreen, HEK293 cells expressing human GLP-1R",[2],0.013 nM
H-H[Aib]EGSFTSELATILDEQAARDFIAWLIAHKITD-OH (SMILES CC[C@H](C)[C@H](NC(=O)[C@H](CC(C)C)NC(=O)[C@H](Cc1c[nH]c2ccccc12)NC(=O)[C@H](C)NC(=O)[C@@H](NC(=O)[C@H](Cc1ccccc1)NC(=O)[C@H](CC(=O)O)NC(=O)[C@H](CCCNC(=N)N)NC(=O)[C@H](C)NC(=O)[C@H](C)NC(=O)[C@H](CCC(N)=O)NC(=O)[C@H](CCC(=O)O)NC(=O)[C@H](CC(=O)O)NC(=O)[C@H](CC(C)C)NC(=O)[C@@H](NC(=O)[C@@H](NC(=O)[C@H](C)NC(=O)[C@H](CC(C)C)NC(=O)[C@H](CCC(=O)O)NC(=O)[C@H](CO)NC(=O)[C@@H](NC(=O)[C@H](Cc1ccccc1)NC(=O)[C@H](CO)NC(=O)CNC(=O)[C@H](CCC(=O)O)NC(=O)C(C)(C)NC(=O)[C@@H](N)Cc1c[nH]cn1)[C@@H](C)O)[C@@H](C)O)[C@@H](C)CC)[C@@H](C)CC)C(=O)N[C@@H](C)C(=O)N[C@@H](Cc1c[nH]cn1)C(=O)N[C@@H](CCCCN)C(=O)N[C@H](C(=O)N[C@H](C(=O)N[C@@H](CC(=O)O)C(=O)O)[C@@H](C)O)[C@@H](C)CC) [Compound 1],"EC50 GLP-2 (nM); cAMP AlphaScreen, HEK293 cells expressing human GLP-2R",[1],0.036 nM
same,"EC50 GLP-1 (nM); cAMP AlphaScreen, HEK293 cells expressing human GLP-1R",[2],0.014 nM
